{"source": "paper PMC12884772", "about": "“Macrophagic Sclerostin Loop2‐ApoER2 Interaction Required by Sclerostin for Cardiovascular Protective Action” (Advanced Science, 2025)", "target": "T1, ApoER2 (Homo sapiens, UniProt Q14114)", "T1 construct": "purchased R&D 3520‐AR", "T1 sequence (Q14114 33-963)": "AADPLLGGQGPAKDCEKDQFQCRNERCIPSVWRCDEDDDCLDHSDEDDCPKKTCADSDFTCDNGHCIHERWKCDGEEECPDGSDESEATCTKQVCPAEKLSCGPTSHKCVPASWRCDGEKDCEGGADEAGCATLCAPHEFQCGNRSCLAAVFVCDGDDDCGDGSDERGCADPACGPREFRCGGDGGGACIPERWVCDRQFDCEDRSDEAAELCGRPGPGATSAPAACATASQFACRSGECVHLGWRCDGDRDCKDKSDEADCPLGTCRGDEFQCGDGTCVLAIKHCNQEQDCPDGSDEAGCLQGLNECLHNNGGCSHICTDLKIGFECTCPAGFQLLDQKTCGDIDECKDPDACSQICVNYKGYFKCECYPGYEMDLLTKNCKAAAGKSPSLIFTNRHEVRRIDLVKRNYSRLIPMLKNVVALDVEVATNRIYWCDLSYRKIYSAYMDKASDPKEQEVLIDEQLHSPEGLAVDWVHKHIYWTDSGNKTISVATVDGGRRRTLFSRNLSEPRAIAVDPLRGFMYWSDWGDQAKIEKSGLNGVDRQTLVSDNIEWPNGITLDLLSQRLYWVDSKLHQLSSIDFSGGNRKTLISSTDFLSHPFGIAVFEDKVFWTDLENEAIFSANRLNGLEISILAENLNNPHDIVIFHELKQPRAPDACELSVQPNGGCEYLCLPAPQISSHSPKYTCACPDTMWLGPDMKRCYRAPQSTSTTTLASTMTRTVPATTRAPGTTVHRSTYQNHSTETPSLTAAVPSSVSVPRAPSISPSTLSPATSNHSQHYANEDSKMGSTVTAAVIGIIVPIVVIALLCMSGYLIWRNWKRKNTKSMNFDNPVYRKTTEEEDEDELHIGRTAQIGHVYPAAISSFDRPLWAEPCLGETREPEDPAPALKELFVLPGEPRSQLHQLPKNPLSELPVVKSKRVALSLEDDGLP", "assay": "Biolayer interferometry (BLI) binding of ApoER2 and sclerostin / sclerostin loop2", "protocol": "The interaction of full‐length (FL)/truncated ApoER2 with full‐length (FL) /truncated sclerostin in macrophages (RAW264.7) were determined by pull‐down assay and Co‐IP assay. The binding affinity of ApoER2 to FL sclerostin and sclerostin loop2 were determined by biolayer interferometry (BLI) analysis. Moreover, the binding of sclerostin to ApoER2 on macrophages (RAW264.7) was examined by confocal microscopy.\nBiolayer interferometry (BLI) analysis was performed on the Biomolecular Interaction Analyzer (ForteBio, Octet RED96e). To determine the binding affinity between ApoER2 and sclerostin, the ApoER2 protein (R&D, 3520‐AR) was biotinylated using 10 mM EZ‐Link Sulfo‐NHS‐LC‐LC‐Biotin (Thermo Scientific, 21 343) in a molar ratio of 1:20 for 2 h at 4 °C. The Slide‐A‐Lyzer Dialysis Cassettes (Thermo Scientific, 66 382) were used for excess biotin removal.^[ [61] ^] […] (SA) tray biosensors (Sartorius, 18‐5019) were used to load biotin‐ApoER2 proteins. Biosensors were pre‐wet for 10 min using 200 µL PBS containing 0.02% Tween 20 (v/v) in a 96‐well plate. […] Raw data were analyzed using Data Analysis Software (ForteBio, v8.1). All Kd values were calculated after deducting the non‐specific binding between the biosensors and the samples.^[ [62], [63] ^]", "note": "Read-outs that look alike come from different tables or passages of the source.", "data": [{"substance": "sclerostin: recombinant human/mouse full‐length sclerostin protein", "values": [{"measurement": "Kd", "setting": "Figure S6B, Sclerostin – ApoER2, read-out: Kd, binding of sclerostin to ApoER2", "value": 2.1, "unit": "nM"}, {"measurement": "Kd", "setting": "Octet RED96e, biotin‐ApoER2 on streptavidin biosensors or His‐ApoER2 on HIS1K biosensors, non‐specific binding deducted, Figure 6B, read-out: Kd, binding of ApoER2 to sclerostin or sclerostin loop2", "value": 3.8, "unit": "nM"}]}]}
